Reference: the supplement of paper PMC12764529
± gives the half width of the 95% confidence interval.

Assays:
[1] = folding stability dG unfold from trypsin proteolysis; higher = more stable
Outline: (§1)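 Unfolding free energy was derived, per protease or combined, by relating Bayesian-fitted K50 values from sequencing counts to a sequence-predicted unfolded-state K50 and a shared folded-state K50. The underlying digests exposed cysteine-free mini-proteins under 80 residues, in a PA-tagged cDNA display construct, to trypsin and chymotrypsin at 11 threefold-diluted concentrations and to a no-protease condition. A filter kept only designs with AlphaFold2 dimer inter-PAE above 15.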

[2] = folding stability dG unfold (combined trypsin and chymotrypsin); higher = more stable
Outline: as §1

[3] = folding stability dG unfold from chymotrypsin proteolysis; higher = more stable
Outline: as §1

Sequence | folding stability dG unfold [1] [kcal/mol] | folding stability dG unfold [2] [kcal/mol] | folding stability dG unfold [3] [kcal/mol]
SAGGSAGGSAMEIEIEIEIPVPVPGGVPSPENPEVAEERAEEIKEKYAKEGLKVKVKITVVSAGGSAGGSAG [r3_258_JUSTAS] | 1.22 ± 0.21 | 1.07 ± 0.3 | 1.13 ± 0.061
SAGGSASMVEEEVTLQKKVKSEEEALKFAEEVKESNPHVKTVEVSLEKLPDGSILVNVTIKRILKPSAGGSA [r15_726_JUSTAS] | 4.43 ± 0.4 | 4.21 ± 0.29 | 3.31 ± 0.093
SAGGSAGGSAGGTVTFFEENEFVIDVPDPLTGRPIRIEVPGDPNKPEEIEARAEELRLSSAGGSAGGSAGGS [r10_379_JUSTAS] | 0.187 ± 0.066 | 0.0609 ± 0.072 | -0.157 ± 0.096
SAGGSAGGWIEIDPETGTIEIWMPPNDIEPLVDEIAEELGWKVKVKVEPNPEGWVRHTITIPPKSAGGSAGG [r6_419_TrROS] | -0.109 ± 0.087 | 0.39 ± 0.23 | 0.281 ± 0.35
SAGGLAEYIARYLQENDPRARVEAEEGDVLDGVRVIRVRVERVDDAFGGDIPSSADFILVIPAGAPPTSAGG [r19_8_TrMRF] | 1.36 ± 0.025 | 1.38 ± 0.089 | 1.38 ± 0.1
SAGGSDTVVLDFTVTVDGKPYTVRVTLTRNPPTGEITVPVEIESANPEDAVPAREVADALVERLLSSAGGSA [r2_259_TrMRF] | 1.21 ± 0.028 | 1.56 ± 0.076 | 1.78 ± 0.075
SAGGSAGGMVIKIITNAPSLEEAEEIAKRVAAELRERFGGPDVEIVLDVEVIPLPPVPTEDGKPSAGGSAGG [r6_182_TrMRF] | 1.38 ± 0.053 | 1.82 ± 0.092 | 1.97 ± 0.16
SAGGSAGGSAGEEFIKKIPPGAEVKPITPLESEGKVYVKITVKKKDENGKWTEEEFIFKVSAGGSAGGSAGG [r17_140_JUSTAS] | 1.17 ± 0.072 | 1.28 ± 0.22 | 1.38 ± 0.087
SAGGSAGGSITVEVEVEIVDEVEDPNTQGYRPVRVSRIPITIPVPESWSEEDIEAAVKEAIEKASAGGSAGG [r6_494_JUSTAS] | 1.1 ± 0.047 | 1.7 ± 0.15 | 2.13 ± 0.022
SAGGSIWIPIDSPEDVEEAIDFIQDFLAERGMPPGHDIKKIKVERMENGHYWVEIEFPGRKIYIWVSAGGSA [r2_120_TrROS] | 2.62 ± 0.049 | 3.65 ± 0.084 | 4.02 ± 0.054
SAGGSAGGSAGGKWHLITFTITMEMYVMKFDPENGKWKPVDPIPMEIQITFLIPPGDPISAGGSAGGSAGGS [r10_610_TrROS] | 3.77 ± 0.25 | 4.65 ± 0.47 | 5.08 ± 0.2
SAGGSAGGSAGDKNGKPPPKIEIVPIRMSFRFPELGWWIEIDIYVIKDPAIMISISLYPYSAGGSAGGSAGG [r11_883_TrROS] | 3.61 ± 0.22 | 4.91 ± 0.35 | 5.25 ± 0.17
SAGGSAGGMKVYEIEVPPSSGLTPEEIRARVREEIEASNNAPVEVTVEVDPNGRLTVTIKITPLSAGGSAGG [r6_819_JUSTAS] | 1.83 ± 0.036 | 1.49 ± 0.13 | 1.28 ± 0.054
SAGGSAGGSWIPLPDGYLIKITEVVPGGIRIKFPDMGNEITIPPGMPIKIKIIPVKDPDGEPISAGGSAGGS [r20_105_TrROS] | 1.03 ± 0.056 | 0.9 ± 0.14 | 0.838 ± 0.05
SAGKFKITNISPMEERKPEDDKWEEQPYIMIRMRWKDPQKALDEIKEEFGYPVNIQRDPDDGWATIMIPSAG [r5_907_TrROS] | 0.137 ± 0.2 | 0.248 ± 0.11 | 0.231 ± 0.18
SAGGSAGGGIEPGKKVKAKATLILPGGKPIPFTATFTPDYVTLDLGKGSLTVPVEFIAHLEIEDSAGGSAGG [r6_132_TrMRF] | 0.371 ± 0.052 | 1.11 ± 0.053 | 1.48 ± 0.079
SAGGSPTREVVLPTKDPTADKAFYTVRITLTEPPSNSTAVTVTFLDLPPDVEPSPELVAAVEAALSSAGGSA [r2_7_JUSTAS] | 0.46 ± 0.036 | 0.495 ± 0.056 | 0.436 ± 0.13
SAGGLKPGDWVIIMTIEFPFPFPDDDGKPQEWRIKITIWVPVEYDPPDGKLEIDNIFINIEIVPPDQISAGG [r13_312_TrROS] | 3.52 ± 0.22 | 4.44 ± 0.18 | 4.55 ± 0.1
SAGGSAMTPEELANVTVEVVTTTEPASPDLTLPDGTRLPPSTTVTTTTEVVVLPGGELLGTRVTVASAGGSA [r15_12_JUSTAS] | -0.375 ± 0.051 | 0.644 ± 0.043 | 1.03 ± 0.023
SAGYIIGYPIIEELFNAGKPEEIRKILKEAVEKDPDKIIIIEVPENPEIAKAIEEAFKEEGIPLIIIPESAG [r14_236_TrMRF] | 1.02 ± 0.035 | 0.929 ± 0.065 | 0.81 ± 0.1
SAGGMKIEKIFSSEEEAKAAAEKIKNETPEGKELKIEISKIPLKENLPPESPEILDEERYIVKVELPSAGGS [r16_795_JUSTAS] | 0.816 ± 0.078 | 0.467 ± 0.24 | 0.116 ± 0.42
